Where no end group is shown, it is not given here.

Results on ten substances are retold here after patent US5866683A, “Isoelectric point markers for isoelectric focusing with fluorescence detection” (Laboratory of Molecular Biophotonics, priority 1995, dated 1999).

Test in the first data set: not given
To be noted: unlabeled protein; cited from earlier work.
Regarding “bovine carbonic anhydrase [reference compound]”, the “pI (known) of conventional protein pI marker” value (shortened to “pI (known)”) is recorded as 6.00. As to “human carbonic anhydrase [reference compound]”, the “pI (known)” value is 6.50. Consider human hemoglobin A [reference compound], for which the “pI (known)” value was 7.10. For the substance phycocyanin [reference compound], the “pI (known)” value is listed as 4.65.

As to β-lactoglobulin B [reference compound], the “pI (known)” value is reported as 5.10.

The next data set in a line: isoelectric focusing in polyacrylamide slab gel, mobility compared with commercial pI markers. The format is physicochemical. The conditions noted are these: fluorescence-labeled (5-carboxytetramethylrhodamine) oligopeptide, carrier ampholyte pH 3.5-10, vs pI calibration kit 3-10 (range pI 9.30-3.5). The text has this:
In the present invention, pI of each marker for isoelectric focusing with fluorescence detection can be determined by performing isoelectric focusing to compare a mobility thereof with those of commercially available markers for isoelectric focusing or to directly measure pH at a position of migration of the labeled peptide. The isoelectric focusing preferably applicable is isoelectric focusing in polyacrylamide slab gel (see […]., Isoelectric Focusing: Theory, Methodology and Applications, Elsevier, Amsterdam, 1983). […] The focusing conditions were as follows: started at […] and focusing the voltage was increased at intervals of 15 minutes to 100 V, 200 V, 400 V, and 600 V. After focusing, fluorescence-labeled oligopeptides in the gel were photographed through an orange filter under illumination with ultraviolet light, thereby checking focusing positions thereof. […] After staining, de-stained with a mixed solvent of methanol and acetic acid to obtain a clear background, thereby checking the focusing positions. FIG. 5,6,and 7 show the focusing positions of the 24 fluorescence-labeled oligopeptides obtained and the isoelectric focusing markers commercially available.
“DDEHHHKR [No 20, oligopeptide labeled with 5-carboxytetramethylrhodamine]”: the “pI Observed” value turned out to be 4.70. As to “DEYHKR [No 12, oligopeptide labeled with 5-carboxytetramethylrhodamine]”, the “pI Observed” value was 5.55. With “EHHHKR [No 17, oligopeptide labeled with 5-carboxytetramethylrhodamine]”, the “pI Observed” value is given as 7.90. Regarding “Glu--His--Lys--Arg (EHKR; printed: Glu--His--Lys--Arg) [No 9, oligopeptide labeled with 5-carboxytetramethylrhodamine]”, the “pI Observed” value is listed as 7.65. Consider “Tyr--Tyr--His--Lys--Arg (YYHKR; printed: Tyr--Tyr--His--Lys--Arg) [No 8, oligopeptide labeled with 5-carboxytetramethylrhodamine]”, for which the “pI Observed” value is more than 9.30.
